Experimental data: PMC7305236
No end group written: not given here.

B1: adrenorphin-derived peptide FGGFMRRV (peptide)
peptide: FGGFMRRV-NH2
B2: adrenorphin-derived peptide YSGFMRRV (peptide)
peptide: YSGFMRRV-NH2
B3: adrenorphin-derived peptide … (peptide)
peptide: YGGFMRRVR-NH2
B4: adrenorphin-derived peptide … (peptide)
peptide: AYGGFMRRV-NH2
B5: adrenorphin-derived peptide YGGFMRRK (peptide)
peptide: YGGFMRRK-NH2
B6: adrenorphin-derived peptide YGGFMRRQ (peptide)
peptide: YGGFMRRQ-NH2
B7: adrenorphin-derived peptide AGGFMRRV (peptide)
peptide: AGGFMRRV-NH2
B8: adrenorphin-derived peptide YGGFMRRF (peptide)
peptide: YGGFMRRF-NH2
B9: adrenorphin-derived peptide LGGFMRRV (peptide)
peptide: LGGFMRRV-NH2
B10: adrenorphin-derived peptide YGGFLRRV (peptide)
peptide: YGGFLRRV-NH2
B11: adrenorphin-derived peptide YRGFMRRV (peptide)
peptide: YRGFMRRV-NH2
B12: adrenorphin-derived peptide YGGLMRRV (peptide)
peptide: YGGLMRRV-NH2
B13: adrenorphin-derived peptide … (peptide)
peptide: YGGFMRRVA-NH2
B14: adrenorphin-derived peptide YGGFMRAV (peptide)
peptide: YGGFMRAV-NH2
B15: adrenorphin-derived peptide YGGFNRRV (peptide)
peptide: YGGFNRRV-NH2
B16: adrenorphin-derived peptide YGGFMRKV (peptide)
peptide: YGGFMRKV-NH2
B17: adrenorphin-derived peptide YGGFFRRV (peptide)
peptide: YGGFFRRV-NH2
B18: adrenorphin-derived peptide YGGFMRRI (peptide)
peptide: YGGFMRRI-NH2
B19: adrenorphin-derived peptide YGGFKRRV (peptide)
peptide: YGGFKRRV-NH2
B20: adrenorphin-derived peptide YAGFMRRV (peptide)
peptide: YAGFMRRV-NH2
B21: adrenorphin-derived peptide YGGFMRRA (peptide)
peptide: YGGFMRRA-NH2
B22: adrenorphin-derived peptide YGGFMKRV (peptide)
peptide: YGGFMKRV-NH2
B23: adrenorphin-derived peptide YGGYMRRV (peptide)
peptide: YGGYMRRV-NH2
B24: adrenorphin-derived peptide YGGFARRV (peptide)
peptide: YGGFARRV-NH2
B25: adrenorphin-derived peptide YGSFMRRV (peptide)
peptide: YGSFMRRV-NH2
B26: adrenorphin-derived peptide YGGFMARV (peptide)
peptide: YGGFMARV-NH2
B27: adrenorphin-derived peptide YGGAMRRV (peptide)
peptide: YGGAMRRV-NH2
B28: adrenorphin-derived peptide YGGWMRRV (peptide)
peptide: YGGWMRRV-NH2
B29: adrenorphin-derived peptide (…)2 (peptide)
peptide: YGGFMRRVC-NH2
modifications: also: dimer of two chains
B30: adrenorphin-derived peptide YGAFMRRV (peptide)
peptide: YGAFMRRV-NH2
B31: adrenorphin-derived peptide - GGFMRRV (peptide)
peptide: GGFMRRV-NH2
B32: adrenorphin-derived peptide YGGFQRRV (peptide)
peptide: YGGFQRRV-NH2
B33: adrenorphin-derived peptide YGGFMRRL (peptide)
peptide: YGGFMRRL-NH2

What was measured:
[1] = biological target: atypical chemokine receptor ACKR3 (formerly CXCR7) (human) (UniProt P25106)
[2] = biological target: mu opioid receptor (MOR) (human) (UniProt P35372)
[3] = biological target: kappa opioid receptor (KOR) (human) (UniProt P41145)
[4] = biological target: delta opioid receptor (DOR) (human) (UniProt P41143)

Sequence of atypical chemokine receptor ACKR3 (formerly CXCR7) (human) (P25106 whole entry): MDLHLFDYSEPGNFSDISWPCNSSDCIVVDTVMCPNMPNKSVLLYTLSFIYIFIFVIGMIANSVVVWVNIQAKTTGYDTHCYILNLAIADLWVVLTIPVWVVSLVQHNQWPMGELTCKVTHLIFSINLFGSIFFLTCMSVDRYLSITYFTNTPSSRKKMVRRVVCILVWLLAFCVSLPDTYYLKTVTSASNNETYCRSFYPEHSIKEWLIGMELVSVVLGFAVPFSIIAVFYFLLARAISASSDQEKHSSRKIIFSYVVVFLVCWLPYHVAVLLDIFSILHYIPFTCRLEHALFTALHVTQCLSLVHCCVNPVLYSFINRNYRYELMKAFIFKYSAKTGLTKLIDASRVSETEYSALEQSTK

| Binder | Supplementary Table 4: EC50 of β-arrestin-1 recruitment to ACKR3, U87 cells [1] [nM] | Supplementary Table 4: EC50 of β-arrestin-1 recruitment to MOR, U87 cells [2] [nM] | Supplementary Table 4: EC50 of β-arrestin-1 recruitment to KOR, U87 cells [3] [nM] | Supplementary Table 4: EC50 of β-arrestin-1 recruitment to DOR, U87 cells [4] [nM] |
| --- | --- | --- | --- | --- |
| B1 | 9.33 | – | – | – |
| B2 | 10000 | – | – | – |
| B3 | 12.6 | 58.7 | 21.9 | 193 |
| B4 | 330 | 308 | 205 | 637 |
| B5 | 37 | 252 | 19.2 | 527 |
| B6 | 110 | 183 | 63.1 | 259 |
| B7 | > 10000 | – | – | – |
| B8 | 73.5 | 198 | 80.9 | 212 |
| B9 | 261 | – | – | – |
| B10 | 684 | 880 | 31.9 | 513 |
| B11 | 5000 | – | – | – |
| B12 | 10000 | – | – | – |
| B13 | 72.3 | 174 | 57.5 | 272 |
| B14 | – | 682 | 1250 | 308 |
| B15 | 10000 | – | 508 | – |
| B16 | 10000 | 786 | 230 | 378 |
| B17 | 1540 | 363 | 194 | 1310 |

| Binder | Supplementary Table 4: EC50 of β-arrestin-1 recruitment to ACKR3, U87 cells [1] [nM] | Supplementary Table 4: EC50 of β-arrestin-1 recruitment to MOR, U87 cells [2] [nM] | Supplementary Table 4: EC50 of β-arrestin-1 recruitment to KOR, U87 cells [3] [nM] | Supplementary Table 4: EC50 of β-arrestin-1 recruitment to DOR, U87 cells [4] [nM] |
| --- | --- | --- | --- | --- |
| B18 | 115 | 188 | 76.9 | 320 |
| B19 | 10000 | – | – | – |
| B20 | 611 | 1090 | – | 2320 |
| B21 | 201 | 265 | 132 | 260 |
| B22 | 5000 | 63.8 | 416 | 360 |
| B23 | 5000 | – | – | – |
| B24 | 5000 | > 10000 | 656 | > 10000 |
| B25 | 668 | > 10000 | > 10000 | > 10000 |
| B26 | 5000 | 35.4 | 2240 | 147 |
| B27 | 10000 | – | – | – |
| B28 | 70.3 | 522 | > 10000 | 1020 |
| B29 | 52.9 | 271 | 79.4 | 253 |
| B30 | 263 | > 10000 | 315 | 1580 |
| B31 | > 10000 | – | – | – |
| B32 | 5000 | 5000 | 283 | > 10000 |
| B33 | 153 | 294 | 71.2 | 254 |
